Data on 5 molecules can be found in US20040137516A1 (PHAGETECH, published 2004).

B1: Gal4 DNA binding domain-Lamin C control fusion (pGBKT7LaminC) (other)
chain: MKLLSSIEQACDICRLKKLKCSKEKPKCAKCLKNNWECRYSPKTKRSPLTRAHLTEVESRLERLEQLFLLIFPREDLDMILKMDSLQDIKALLTGLFVQDNVNKDAVTDRLASVETDMPLTLRQHRISATSSSEESSNKGQRQLTVSSEEVVSREVSGIKAAYEAELGDARKTLDSVAKERARLQLELSKVREEFKELKARNTKKEGDLIAAQARLKDLEALLNSKEAALSTALSEKRTLEGELHDLRGQVAKLEAALGEAKKQLQDEMLRRVDAENRLQTMKEELDFQKNIYSEELRETKRRHETRLVEID
notes: also called pGBKLaminC

Assay [1] has as its target T1, Gal4 activation domain-STAAU_R2 fusion (pGADSTAAU_R2) (yeast; Staphylococcus aureus, UniProt P0A022 1-377).
T1 construct: Expressed in yeast AH109 for two-hybrid analysis; not shown: limits and vector-encoded tags not st
T1 sequence: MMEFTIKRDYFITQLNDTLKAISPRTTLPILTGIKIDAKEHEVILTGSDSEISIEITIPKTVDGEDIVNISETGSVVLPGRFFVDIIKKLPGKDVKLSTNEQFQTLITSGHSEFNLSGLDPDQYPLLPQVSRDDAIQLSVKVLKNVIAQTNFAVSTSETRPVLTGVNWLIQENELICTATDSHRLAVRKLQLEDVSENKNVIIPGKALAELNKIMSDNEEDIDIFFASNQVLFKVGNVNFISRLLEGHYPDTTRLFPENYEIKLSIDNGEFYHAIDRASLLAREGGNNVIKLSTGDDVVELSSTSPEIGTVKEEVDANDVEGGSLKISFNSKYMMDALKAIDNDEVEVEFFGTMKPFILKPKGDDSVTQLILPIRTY
As to the kind of experiment: yeast two-hybrid, growth on THAL minus medium.

In assay [2] the target is T2, S. aureus STAAU_R2 (DNA-directed DNA polymerase III beta subunit, DnaN), native protein in S. aureus extract (Staphylococcus aureus, UniProt P0A022 1-377).
T2 construct: also called PT48; PT 48
T2 sequence: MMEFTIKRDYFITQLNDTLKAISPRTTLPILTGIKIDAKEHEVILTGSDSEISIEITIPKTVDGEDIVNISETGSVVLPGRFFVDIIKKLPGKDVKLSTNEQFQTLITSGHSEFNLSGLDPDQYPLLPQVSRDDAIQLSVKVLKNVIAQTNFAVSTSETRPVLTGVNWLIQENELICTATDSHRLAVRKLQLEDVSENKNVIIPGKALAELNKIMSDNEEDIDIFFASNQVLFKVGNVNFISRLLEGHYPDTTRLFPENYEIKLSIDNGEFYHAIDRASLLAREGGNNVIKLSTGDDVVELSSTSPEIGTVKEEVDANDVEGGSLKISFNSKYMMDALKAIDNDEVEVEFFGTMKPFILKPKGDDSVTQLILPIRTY
As to the kind of experiment: affinity chromatography of S. aureus extract on GST/ORF25-Affigel 10; 1% SDS eluate, SDS-PAGE silver stain, MALDI-ToF identification.

Assay [3] concerns the target T3, Glutathione-S-transferase (GST)-tagged STAAU_R2 (Staphylococcus aureus, UniProt P0A022 1-377).
T3 construct: Purified recombinant polypeptide captured by an anti-GST antibody on a CM5 chip; not shown: glutathione-S-transferase (GST) tag
T3 sequence: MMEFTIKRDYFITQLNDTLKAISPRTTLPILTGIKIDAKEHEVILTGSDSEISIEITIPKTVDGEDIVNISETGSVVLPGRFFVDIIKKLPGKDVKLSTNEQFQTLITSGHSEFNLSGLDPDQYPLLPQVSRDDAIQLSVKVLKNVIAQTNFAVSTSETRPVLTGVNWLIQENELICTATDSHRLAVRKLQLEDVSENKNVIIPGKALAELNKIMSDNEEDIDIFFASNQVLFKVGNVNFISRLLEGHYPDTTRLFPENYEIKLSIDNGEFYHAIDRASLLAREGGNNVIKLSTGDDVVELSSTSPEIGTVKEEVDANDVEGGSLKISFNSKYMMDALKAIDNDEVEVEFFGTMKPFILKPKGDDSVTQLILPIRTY
The assay can be described thus: SPR (Biacore 2000); GST-tagged STAAU_R2 captured by anti-GST antibody on CM5 chip, ORF 25 as analyte. On the technique in general: SPR reads the build-up and loss of mass on a sensor chip optically.

In assay [4] the target is T2, S. aureus STAAU_R2 (DNA-directed DNA …). The assay can be described thus: affinity chromatography of S. aureus extract on GST ORF240-Affigel 10; SDS-PAGE silver stain.
The target of assay [5] is B1. As to the kind of experiment: yeast two-hybrid, growth on THAL minus medium.

Where no end group is shown, it is not given here.

With B1, the binding result in assay [1] is “no binding”.

B2: GST/44AHJD ORF 25 fusion protein (other)
chain: MERKYKTVLLYCDEIKGHFPHQISMFEDLYDAKVVYSYYEYNLFTKKYAYIIEYIKEI
modifications: also: fusion protein with GST moiety, not in chain
notes: also called GST/ORF 25; GST/ORF25; not shown: glutathione-S-transferase (GST) moiety encoded by expression vector pGEX 4T-1 (Pharmacia)
On to B2, for which the binding result in assay [2] is “binds”.

B3: purified bacteriophage 44AHJD ORF 25 protein (other)
chain: MERKYKTVLLYCDEIKGHFPHQISMFEDLYDAKVVYSYYEYNLFTKKYAYIIEYIKEI
notes: Purified recombinant polypeptide injected as analyte in SPR; also called 44ADJH ORF 25
As for B3, in assay [3], the binding result is “binds”.

B4: GST/G1 ORF 240 fusion protein (other)
chain: MVIPSIKAQNKFKNELEYYKQGHISESKMLELAFDYIQELEQNNEYVTNLLEEERYGE
modifications: also: fusion protein with GST moiety, not in chain
notes: also called GST ORF240; not shown: glutathione-S-transferase (GST) moiety encoded by expression vector pGEX 4T-1
As to B4, in assay [4], the binding result is given as “binds”.

B5: Gal4 activation domain-Twort ORF 168 fusion (pGADT7 construct) (other)
chain: MLFFKEKFYNELSYYRGGHKDLESMFELALEYIEKLEEEDEQQVTDYENAMEEELRDAVDVIESQLEIIKDIVR
notes: Second orientation of the two-hybrid test; also called Twort ORF 168 polypeptide; not shown: limits and vector-encoded tags not st
As to B5, the binding result in assay [5] is reported as “no binding”.
